Measurements taken from article PMC4809669 (Biochemistry, 2016).

B1: hASRGL1-C202A (enzyme, human, UniProt Q7L266 1-308, looked up)
chain: MNPIVVVHGGGAGPISKDRKERVHQGMVRAATVGYGILREGGSAVDAVEGAVVALEDDPEFNAGCGSVLNTNGEVEMDASIMDGKDLSAGAVSAVQCIANPIKLARLVMEKTPHCFLTDQGAAQFAAAMGVPEIPGEKLVTERNKKRLEKEKHEKGAQKTDCQKNLGTVGAVALDCKGNVAYATSTGGIVNKMVGRVGDSPALGAGGYADNDIGAVSTTGHGESILKVNLARLTLFHIEQGKTVEEAADLSLGYMKSRVKGLGGLIVVSKTGDWVAKWTSTSMPWAAAKDGKLHFGIDPDDTTITDLP
B2: hASRGL1-C202S (enzyme, human, UniProt Q7L266 1-308, looked up)
chain: MNPIVVVHGGGAGPISKDRKERVHQGMVRAATVGYGILREGGSAVDAVEGAVVALEDDPEFNAGCGSVLNTNGEVEMDASIMDGKDLSAGAVSAVQCIANPIKLARLVMEKTPHCFLTDQGAAQFAAAMGVPEIPGEKLVTERNKKRLEKEKHEKGAQKTDCQKNLGTVGAVALDCKGNVAYATSTGGIVNKMVGRVGDSPSLGAGGYADNDIGAVSTTGHGESILKVNLARLTLFHIEQGKTVEEAADLSLGYMKSRVKGLGGLIVVSKTGDWVAKWTSTSMPWAAAKDGKLHFGIDPDDTTITDLP

Biological target: the molecule itself
Assay: SEC

Protein	stoichiometry N
B1	2
B2	2
